B1: CLuc-FGF14 [human] / CD4-Nav1.6 C-tail-NLuc [human] (parent)
chain 1: MVKPVPLFRRTDFKLLLCNHKDLFFLRVSKLLDCFSPKSMWFLWNIFSKGTHMLQCLCGKSLKKNKNPTDPQLKGIVTRLYCRQGYYLQMHPDGALDGTKDDSTNSTLFNLIPVGLRVVAIQGVKTGLYIAMNGEGYLYPSELFTPECKFKESVFENYYVIYSSMLYRQQESGRAWFLGLNKEGQAMKGNRVKKTKPAAHFLPKPLEVAMYREPSLHDVGETVPKPGVTPSKSTSASAIMNGGKPVNKSKTT
chain 2: IVVNMYIAIILENFSVATEESADPLSEDDFETFYEIWEKFDPDATQFIEYCKLADFADALEHPLRVPKPNTIELIAMDLPMVSGDRIHCLDILFAFTKRVLGDSGELDILRQQMEERFVASNPSKVSYEPITTTLRRKQEEVSAVVLQRAYRGHLARRGFICKKTTSNKLENGGTHREKKESTPSTASLPSYDSVTKPEKEKQQRAEEGRRERAKRQKEVRESKC

Variants of: B1
Experiment: split-luciferase complementation assay (LCA) in HEK293 cells
Conditions: with CD4-Nav1.6 C-tail-NLuc [human], DMSO vehicle control of the same pair = 100, read off a plot

| screen value (% Luminescence (RLU)) (EYYV peptide 50 µM present) | screen value (% Luminescence (RLU)) (FLPK peptide 50 µM present) | screen value (% Luminescence (RLU)) (PLEV peptide 50 µM present) | Variant |
| --- | --- | --- | --- |
| 79 | 100 | 72 | chain 1 MVKPVPLFRRTDFKLLLCNHKDLFFLRVSKLLDCFSPKSMWFLWNIFSKGTHMLQCLCGKSLKKNKNPTDPQLKGIVTRLYCRQGYYLQMHPDGALDGTKDDSTNSTLFNLIPVGLRVVAIQGVKTGLYIAMNGEGYLYPSELFTPECKFKESVFENNYNIYSSMLYRQQESGRAWFLGLNKEGQAMKGNRVKKTKPAAHFLPKPLEVAMYREPSLHDVGETVPKPGVTPSKSTSASAIMNGGKPVNKSKTT [chain 1 Y158N V160N] |
| 100 | 99 | 110 | chain 1 MVKPVPLFRRTDFKLLLCNHKDLFFLRVSKLLDCFSPKSMWFLWNIFSKGTHMLQCLCGKSLKKNKNPTDPQLKGIVTRLYCRQGYYLQMHPDGALDGTKDDSTNSTLFNLIPVGLRVVAIQGVKTGLYIAMNGEGYLYPSELFTPECKFKESVFENAYAIYSSMLYRQQESGRAWFLGLNKEGQAMKGNRVKKTKPAAHFLPKPLEVAMYREPSLHDVGETVPKPGVTPSKSTSASAIMNGGKPVNKSKTT [chain 1 Y158A V160A] |
| 93 | 91 | 94 | chain 1 MVKPVPLFRRTDFKLLLCNHKDLFFLRVSKLLDCFSPKSMWFLWNIFSKGTHMLQCLCGKSLKKNKNPTDPQLKGIVTRLYCRQGYYLQMHPDGALDGTKDDSTNSTLFNLIPVGLRVVAIQGVKTGLYIAMNGEGYLYPSELFTPECKFKESVFENYYAIYSSMLYRQQESGRAWFLGLNKEGQAMKGNRVKKTKPAAHFLPKPLEVAMYREPSLHDVGETVPKPGVTPSKSTSASAIMNGGKPVNKSKTT [chain 1 V160A] |
| 100 | 87 | 110 | chain 1 MVKPVPLFRRTDFKLLLCNHKDLFFLRVSKLLDCFSPKSMWFLWNIFSKGTHMLQCLCGKSLKKNKNPTDPQLKGIVTRLYCRQGYYLQMHPDGALDGTKDDSTNSTLFNLIPVGLRVVAIQGVKTGLYIAMNGEGYLYPSELFTPECKFKESVFENAYVIYSSMLYRQQESGRAWFLGLNKEGQAMKGNRVKKTKPAAHFLPKPLEVAMYREPSLHDVGETVPKPGVTPSKSTSASAIMNGGKPVNKSKTT [chain 1 Y158A] |

Reference: paper PMC7363588, “Mapping of the FGF14:Nav1.6 complex interface reveals FLPK as a functionally active peptide modulating excitability” (Physiological Reports, 2020)
